Results taken from patent publication US20040018971A1 (published 2004).

B1: HER2/neu DR supermotif exemplary peptide LLVVVLGVVFGILIK (position 662) (peptide)
peptide: LLVVVLGVVFGILIK
notes: synthetic 15-mer; also called Her2/neu.662
B2: HER2/neu DR supermotif exemplary peptide ITDFGLARLLDIDET (position 861) (peptide)
peptide: ITDFGLARLLDIDET
notes: synthetic 15-mer; also called Her2/neu.861

Molecular target: T1, HLA-DRB1*0101 (human)
T1 construct: also called DR1
Test: competition with 125I-labeled standard peptide, purified HLA-DR, gel filtration

In order of rising relative binding ratio:
1. B1  -0.0008 ratio (standard IC50 / test IC50)
2. B2  0.0048 ratio (standard IC50 / test IC50)

Molecular target: T2, HLA-DRB1*0401 (human)
T2 construct: also called DR4w4
Test: as above

In order of falling relative binding ratio:
1. B1  -0.0025 ratio (standard IC50 / test IC50)
2. B2  -0.0032 ratio (standard IC50 / test IC50)

Molecular target: T3, HLA-DRB1*0701 (human)
T3 construct: also called DR7
Test: as above

In order of falling relative binding ratio:
1. B1  0.0019 ratio (standard IC50 / test IC50)
2. B2  -0.0011 ratio (standard IC50 / test IC50)

Molecular target: HLA-A*6801 (human)
Test: competition with 125I-labelled standard peptide for purified HLA; gel filtration

For MVLESILRR [Her2/neu.889.V2], the IC50 was 22 nM.

Molecular target: T4, HLA-A*0301 (purified HLA class I molecule) (human)
T4 construct: also called A3
Test: inhibition of 125I probe peptide binding to purified HLA; ratio to standard peptide

In order of rising relative binding ratio:
1. DLSYMPIWK (also called Her2/neu.607 (9-mer)) [HER2/neu peptide, position 607, 9 amino acids]  0.0005 ratio (IC50 standard / IC50 test)
2. CVNCSQFLR (also called Her2/neu.528) [HER2/neu peptide, position 528, 9 amino acids]  0.0015 ratio (IC50 standard / IC50 test)
3. GTQRCEKCSK (also called Her2/neu.327 (10-mer)) [HER2/neu peptide, position 327, 10 amino acids]  0.021 ratio (IC50 standard / IC50 test)
4. CVARCPSGVK (also called Her2/neu.596 (10-mer)) [HER2/neu peptide, position 596, 10 amino acids]  0.022 ratio (IC50 standard / IC50 test)

Molecular target: HLA-A*1101 (purified HLA class I molecule) (human)
Test: as above

In order of falling relative binding ratio:
1. GTQRCEKCSK (also called Her2/neu.327 (10-mer)) [HER2/neu peptide, position 327, 10 amino acids]  0.61 ratio (IC50 standard / IC50 test)
2. CVNCSQFLR (also called Her2/neu.528) [HER2/neu peptide, position 528, 9 amino acids]  0.031 ratio (IC50 standard / IC50 test)
3. DLSYMPIWK (also called Her2/neu.607 (9-mer)) [HER2/neu peptide, position 607, 9 amino acids]  0.01 ratio (IC50 standard / IC50 test)
4. CVARCPSGVK (also called Her2/neu.596 (10-mer)) [HER2/neu peptide, position 596, 10 amino acids]  0.0042 ratio (IC50 standard / IC50 test)

Molecular target: HLA-A*3101 (purified HLA class I molecule) (human)
Test: as above

In order of falling relative binding ratio:
1. CVNCSQFLR (also called Her2/neu.528) [HER2/neu peptide, position 528, 9 amino acids]  0.53 ratio (IC50 standard / IC50 test)
2. GTQRCEKCSK (also called Her2/neu.327 (10-mer)) [HER2/neu peptide, position 327, 10 amino acids]  0.014 ratio (IC50 standard / IC50 test)
3. CVARCPSGVK (also called Her2/neu.596 (10-mer)) [HER2/neu peptide, position 596, 10 amino acids]  0.0008 ratio (IC50 standard / IC50 test)
4. DLSYMPIWK (also called Her2/neu.607 (9-mer)) [HER2/neu peptide, position 607, 9 amino acids]  0.0002 ratio (IC50 standard / IC50 test)

Molecular target: HLA-A*3301 (purified HLA class I molecule) (human)
Test: as above

In order of rising relative binding ratio:
1. GTQRCEKCSK (also called Her2/neu.327 (10-mer)) [HER2/neu peptide, position 327, 10 amino acids]  0.0012 ratio (IC50 standard / IC50 test)
2. CVARCPSGVK (also called Her2/neu.596 (10-mer)) [HER2/neu peptide, position 596, 10 amino acids]  0.0064 ratio (IC50 standard / IC50 test)
3. DLSYMPIWK (also called Her2/neu.607 (9-mer)) [HER2/neu peptide, position 607, 9 amino acids]  0.088 ratio (IC50 standard / IC50 test)
4. CVNCSQFLR (also called Her2/neu.528) [HER2/neu peptide, position 528, 9 amino acids]  0.58 ratio (IC50 standard / IC50 test)

Molecular target: HLA-A*6801 (purified HLA class I molecule) (human)
Test: as above

In order of rising relative binding ratio:
1. CVARCPSGVK (also called Her2/neu.596 (10-mer)) [HER2/neu peptide, position 596, 10 amino acids]  0.0093 ratio (IC50 standard / IC50 test)
2. GTQRCEKCSK (also called Her2/neu.327 (10-mer)) [HER2/neu peptide, position 327, 10 amino acids]  0.01 ratio (IC50 standard / IC50 test)
3. DLSYMPIWK (also called Her2/neu.607 (9-mer)) [HER2/neu peptide, position 607, 9 amino acids]  0.031 ratio (IC50 standard / IC50 test)
4. CVNCSQFLR (also called Her2/neu.528) [HER2/neu peptide, position 528, 9 amino acids]  0.44 ratio (IC50 standard / IC50 test)

Molecular target: T4, HLA-A*0301 (purified HLA class I …)
Test: inhibition of 125I probe peptide binding to purified HLA; ratio to standard peptide; minus sign not explained

In order of rising relative binding ratio:
1. CSPMCKGSR (also called Her2/neu.195 (9-mer)) [HER2/neu peptide, position 195, 9 amino acids]  -0.0008 ratio (IC50 standard / IC50 test)
2. DSECRPRFR (also called Her2/neu.962 (9-mer)) [HER2/neu peptide, position 962, 9 amino acids]  -0.0002 ratio (IC50 standard / IC50 test)
3. GMEHLREVR (also called Her2/neu.346 (9-mer)) [HER2/neu peptide, position 346, 9 amino acids]  -0.0002 ratio (IC50 standard / IC50 test)

Molecular target: HLA-A*1101 (purified HLA class I molecule) (human)
Test: as above

In order of rising relative binding ratio:
1. DSECRPRFR (also called Her2/neu.962 (9-mer)) [HER2/neu peptide, position 962, 9 amino acids]  -0.0002 ratio (IC50 standard / IC50 test)
2. GMEHLREVR (also called Her2/neu.346 (9-mer)) [HER2/neu peptide, position 346, 9 amino acids]  -0.0002 ratio (IC50 standard / IC50 test)
3. CSPMCKGSR (also called Her2/neu.195 (9-mer)) [HER2/neu peptide, position 195, 9 amino acids]  -0.0001 ratio (IC50 standard / IC50 test)

Molecular target: HLA-DR1 (DRB1*0101) (human)
Test: competition with 125I-labelled probe peptide on purified HLA-DR, gel filtration; IC50 of standard peptide / IC50 of test peptide

In order of falling relative binding ratio:
1. ETELVEPLTPSGAMP (also called Her2/neu.693) [HER2/neu peptide ETELVEPLTPSGAMP (position 693)]  0.006 ratio
2. GTDMKLRLPASPETH (also called Her2/neu.28) [HER2/neu peptide GTDMKLRLPASPETH (position 28)]  0.001 ratio
3. DMKLRLPASPETHLD (also called Her2/neu.30) [HER2/neu peptide DMKLRLPASPETHLD (position 30)]  0.001 ratio
4. IKVLRENTSPKANKE (also called Her2/neu.752) [HER2/neu peptide IKVLRENTSPKANKE (position 752)]  -0.0005 ratio

Molecular target: T5, HLA-DR3 (DRB1*0301) (human)
T5 construct: Purified HLA class II molecule
Test: as above

In order of falling relative binding ratio:
1. AIKVLRENTSPKANK (also called Her2/neu.751) [HER2/neu peptide AIKVLRENTSPKANK (position 751)]  0.0075 ratio
2. FVVIQNEDLGPASPL (also called Her2/neu.986) [HER2/neu peptide FVVIQNEDLGPASPL (position 986)]  -0.0025 ratio
3. DLTLGLEPSEEEAPR (also called Her2/neu.1058) [HER2/neu peptide DLTLGLEPSEEEAPR (position 1058)]  -0.0025 ratio

Molecular target: T6, HLA-DR4w4 (DRB1*0401) (human)
T6 construct: Purified HLA class II molecule
Test: as above

In order of rising relative binding ratio:
1. IKVLRENTSPKANKE (also called Her2/neu.752) [HER2/neu peptide IKVLRENTSPKANKE (position 752)]  -0.0032 ratio
2. GTDMKLRLPASPETH (also called Her2/neu.28) [HER2/neu peptide GTDMKLRLPASPETH (position 28)]  -0.0025 ratio
3. DMKLRLPASPETHLD (also called Her2/neu.30) [HER2/neu peptide DMKLRLPASPETHLD (position 30)]  -0.0025 ratio
4. ETELVEPLTPSGAMP (also called Her2/neu.693) [HER2/neu peptide ETELVEPLTPSGAMP (position 693)]  -0.0025 ratio

Molecular target: T7, HLA-DR7 (DRB1*0701) (human)
T7 construct: Purified HLA class II molecule
Test: as above

In order of falling relative binding ratio:
1. IKVLRENTSPKANKE (also called Her2/neu.752) [HER2/neu peptide IKVLRENTSPKANKE (position 752)]  -0.0011 ratio
2. GTDMKLRLPASPETH (also called Her2/neu.28) [HER2/neu peptide GTDMKLRLPASPETH (position 28)]  -0.0013 ratio
3. DMKLRLPASPETHLD (also called Her2/neu.30) [HER2/neu peptide DMKLRLPASPETHLD (position 30)]  -0.0013 ratio
4. ETELVEPLTPSGAMP (also called Her2/neu.693) [HER2/neu peptide ETELVEPLTPSGAMP (position 693)]  -0.0013 ratio
